# The RNAGym collection of RNA variant scans (doi:10.7554/elife.80360)
# B1: Twister Ribozyme (parent)
# chain: AACACUGCCAAUGCCGGUCCCAAGCCCGGAUAAAAGUGGAGGGGGCGG
# Variants of: B1
# Assay: self-cleavage, relative activity (ratio to wild type); higher = more cleavage; co-transcriptional
row,Variant,self-cleavage
1,A4G G47U,0.902
2,A4G G48U,0.979
3,A4G U6A,0.866
4,A4G U6G,0.074
5,A4G U12A,1.17
6,A4G U12G,0.673
7,A4G U18A,0.364
8,A4G U31A,0.604
9,A4G U31C,0.886
10,A4G U31G,0.759
11,A4G U37C,0.99
12,A4U,0.136
13,A4U A10C,0.156
14,A4U A10U,0.0773
15,A4U A22C,0.0902
16,A4U A22G,0.0233
17,A4U A23C,0.0467
18,A4U A23G,0.0721
19,A4U A30U,0.11
20,A4U A32C,0.1
21,A4U A32G,0.0833
22,A4U A32U,0.0867
23,A4U A33G,0.0639
24,A4U A34C,0.057

row,Variant,self-cleavage
1,A4U A34U,0.068
2,A4U A35C,0.129
3,A4U A35U,0.196
4,A4U A40C,0.0425
5,A4U A40U,0.0743
6,A4U C5A,0.0794
7,A4U C8G,0.13
8,A4U C8U,0.0539
9,A4U C9G,0.0806
10,A4U C14A,0.225
11,A4U C14G,0.0594
12,A4U C14U,0.13
13,A4U C15G,0.0221
14,A4U C15U,0.124
15,A4U C19G,0.092
16,A4U C19U,0.0724
17,A4U C20A,0.0537
18,A4U C21A,0.0381
19,A4U C21G,0.0541
20,A4U C21U,0.0656
21,A4U C25A,0.029
22,A4U C26A,0.0524
23,A4U C27A,0.0441
24,A4U C46A,0.115

row,Variant,self-cleavage
1,A4U C46G,0.105
2,A4U C46U,0.125
3,A4U G7U,0.0685
4,A4U G13C,0.0685
5,A4U G13U,0.0584
6,A4U G16C,0.0898
7,A4U G16U,0.0436
8,A4U G17C,0.0361
9,A4U G24A,0.0658
10,A4U G24C,0.0697
11,A4U G28C,0.0611
12,A4U G28U,0.116
13,A4U G29A,0.173
14,A4U G36C,0.0838
15,A4U G38A,0.0789
16,A4U G39A,0.0691
17,A4U G41C,0.0883
18,A4U G42A,0.0876
19,A4U G42C,0.103
20,A4U G43C,0.0736
21,A4U G47C,0.111
22,A4U G48A,0.191
23,A4U G48C,0.193
24,A4U U6A,0.0622

row,Variant,self-cleavage
1,A4U U12A,0.0897
2,A4U U12C,0.0758
3,A4U U12G,0.168
4,A4U U31C,0.0955
5,A4U U37C,0.022
6,C5A A10C,0.722
7,C5A A11C,0.169
8,C5A A11U,0.351
9,C5A A22C,0.601
10,C5A A22G,0.0856
11,C5A A22U,0.249
12,C5A A23U,0.074
13,C5A A30C,0.348
14,C5A A30G,0.491
15,C5A A32C,0.413
16,C5A A32U,0.454
17,C5A A33U,0.492
18,C5A A34C,0.119
19,C5A A34U,0.182
20,C5A A35C,0.655
21,C5A A40C,0.129
22,C5A A40U,0.107
23,C5A C8A,0.133
24,C5A C8U,0.335

row,Variant,self-cleavage
1,C5A C9A,0.123
2,C5A C9U,0.0659
3,C5A C14A,0.593
4,C5A C14U,0.668
5,C5A C15U,0.398
6,C5A C19G,0.0385
7,C5A C20A,0.0707
8,C5A C20G,0.0697
9,C5A C25A,0.068
10,C5A C25U,0.236
11,C5A C27A,0.0839
12,C5A C27G,0.0807
13,C5A C46A,0.652
14,C5A C46U,0.681
15,C5A G7A,0.0771
16,C5A G13A,0.132
17,C5A G13C,0.105
18,C5A G13U,0.0864
19,C5A G17C,0.0425
20,C5A G24C,0.0665
21,C5A G28C,0.229
22,C5A G29A,0.362
23,C5A G29U,0.51
24,C5A G36C,0.519

row,Variant,self-cleavage
1,C5A G38A,0.206
2,C5A G38C,0.341
3,C5A G38U,0.0941
4,C5A G39A,0.161
5,C5A G39C,0.149
6,C5A G39U,0.0872
7,C5A G41C,0.0838
8,C5A G42A,0.132
9,C5A G42C,0.184
10,C5A G43A,0.1
11,C5A G43U,0.108
12,C5A G44A,0.556
13,C5A G44C,0.556
14,C5A G44U,0.532
15,C5A G45U,0.413
16,C5A G47U,0.486
17,C5A G48A,0.539
18,C5A G48U,0.577
19,C5A U12G,0.42
20,C5A U18A,0.118
21,C5A U18G,0.0654
22,C5A U31G,0.524
23,C5G A10C,0.768
24,C5G A11C,0.298

row,Variant,self-cleavage
1,C5G A22C,0.571
2,C5G A30C,0.259
3,C5G A32C,0.57
4,C5G A32U,0.515
5,C5G A33G,0.637
6,C5G A35C,0.742
7,C5G A35G,0.696
8,C5G A40C,0.198
9,C5G A40G,0.182
10,C5G A40U,0.0886
11,C5G C8G,0.0701
12,C5G C8U,0.294
13,C5G C9U,0.13
14,C5G C14A,0.557
15,C5G C14G,0.0784
16,C5G C15A,0.251
17,C5G C15U,0.467
18,C5G C19A,0.0784
19,C5G C19G,0.125
20,C5G C19U,0.504
21,C5G C20A,0.0467
22,C5G C21A,0.0944
23,C5G C21U,0.104
24,C5G C25A,0.0988

row,Variant,self-cleavage
1,C5G C25G,0.0808
2,C5G C26G,0.122
3,C5G C27A,0.103
4,C5G C27U,0.445
5,C5G C46G,0.915
6,C5G G7A,0.111
7,C5G G7U,0.0648
8,C5G G13U,0.0419
9,C5G G16A,0.341
10,C5G G17C,0.0444
11,C5G G17U,0.0612
12,C5G G24A,0.0701
13,C5G G28A,0.354
14,C5G G36U,0.724
15,C5G G38C,0.219
16,C5G G38U,0.165
17,C5G G39A,0.197
18,C5G G41C,0.114
19,C5G G41U,0.154
20,C5G G42A,0.108
21,C5G G42C,0.226
22,C5G G42U,0.0923
23,C5G G44A,0.642
24,C5G G44C,0.678

row,Variant,self-cleavage
1,C5G G44U,0.646
2,C5G G45A,0.475
3,C5G G45U,0.369
4,C5G G47C,0.269
5,C5G G47U,0.521
6,C5G G48A,0.67
7,C5G G48C,0.77
8,C5G U6C,0.16
9,C5G U12G,0.768
10,C5G U37C,0.14
11,C5G U37G,0.519
12,C5U A11G,0.77
13,C5U A22G,0.113
14,C5U A30G,0.784
15,C5U A30U,0.752
16,C5U A32C,0.887
17,C5U A32U,0.812
18,C5U A33C,0.652
19,C5U A33G,0.631
20,C5U A33U,0.714
21,C5U A34C,0.166
22,C5U A35G,0.435
23,C5U A40C,0.171
24,C5U A40G,0.133

row,Variant,self-cleavage
1,C5U C8U,0.398
2,C5U C9A,0.349
3,C5U C9U,0.337
4,C5U C14A,0.673
5,C5U C14G,0.0879
6,C5U C14U,0.68
7,C5U C19A,0.145
8,C5U C19U,0.819
9,C5U C20A,0.105
10,C5U C20U,0.816
11,C5U C21G,0.0614
12,C5U C25G,0.149
13,C5U C25U,0.507
14,C5U C27A,0.21
15,C5U C27G,0.0666
16,C5U C46A,0.764
17,C5U G7A,0.147
18,C5U G7C,0.0595
19,C5U G7U,0.0676
20,C5U G13A,0.417
21,C5U G13U,0.157
22,C5U G16U,0.459
23,C5U G17A,0.237
24,C5U G24U,0.0614

row,Variant,self-cleavage
1,C5U G28A,0.572
2,C5U G29C,0.454
3,C5U G29U,0.631
4,C5U G36A,0.852
5,C5U G36C,0.785
6,C5U G38A,0.695
7,C5U G38C,0.581
8,C5U G38U,0.503
9,C5U G39C,0.171
10,C5U G41C,0.137
11,C5U G41U,0.221
12,C5U G43C,0.126
13,C5U G43U,0.2
14,C5U G44A,0.748
15,C5U G44U,0.816
16,C5U G45C,0.239
17,C5U G45U,0.423
18,C5U G47A,0.727
19,C5U G47C,0.315
20,C5U G47U,0.691
21,C5U G48A,0.639
22,C5U G48U,0.82
23,C5U U6C,0.691
24,C5U U12C,0.769

row,Variant,self-cleavage
1,C5U U12G,0.763
2,C5U U18A,0.186
3,C5U U18G,0.066
4,C5U U31A,0.577
5,C5U U31C,0.804
6,C5U U31G,0.65
7,U6A A10C,1.19
8,U6A A11C,0.61
9,U6A A11G,0.897
10,U6A A22G,0.0598
11,U6A A30C,0.428
12,U6A A30G,0.884
13,U6A A32C,0.753
14,U6A A33C,0.949
15,U6A A33U,0.828
16,U6A A34C,0.859
17,U6A A34G,0.731
18,U6A A35G,0.807
19,U6A A35U,0.992
20,U6A A40C,0.15
21,U6A A40G,0.178
22,U6A C8G,0.106
23,U6A C9A,0.153
24,U6A C9U,0.223

row,Variant,self-cleavage
1,U6A C14A,0.866
2,U6A C14U,0.795
3,U6A C15A,0.358
4,U6A C15G,0.0866
5,U6A C19A,0.0793
6,U6A C19G,0.0747
7,U6A C19U,0.539
8,U6A C20U,0.82
9,U6A C21A,0.107
10,U6A C21G,0
11,U6A C21U,0.0948
12,U6A C25A,0.0712
13,U6A C25G,0.121
14,U6A C25U,0.718
15,U6A C26U,0.237
16,U6A G7A,0.224
17,U6A G7U,0.101
18,U6A G13U,0.129
19,U6A G16A,0.604
20,U6A G16C,0.135
21,U6A G16U,0.43
22,U6A G17U,0.101
23,U6A G24A,0.116
24,U6A G28U,0.604

row,Variant,self-cleavage
1,U6A G29C,0.335
2,U6A G36A,0.168
3,U6A G36C,0.136
4,U6A G39U,0.125
5,U6A G42A,0.198
6,U6A G42U,0.163
7,U6A G43C,0.172
8,U6A G43U,0.245
9,U6A G45A,0.911
10,U6A G45C,0.254
11,U6A G47A,0.862
12,U6A G47C,0.296
13,U6A G47U,0.441
14,U6A G48C,0.84
15,U6A U12C,1.11
16,U6A U12G,0.903
17,U6A U18C,0.208
18,U6A U31A,0.717
19,U6A U31C,1.07
20,U6A U31G,1.01
21,U6A U37A,0.142
22,U6C A10G,0.809
